Results: article PMC7929516, “Hallmarks of Alpha- and Betacoronavirus non-structural protein 7+8 complexes” (Science Advances, 2021)
Where a chain is given by its changes, count along the chain named.

B1: MERS-CoV nsp7 (natural protein)
chain: SKLTDLKCTSVVLLSVLQQLHLEANSRAWAFCVKCHNDILAATDPSEAFEKFVSLFATLMTFSGNVDLDALASDIFDTPSVLQ
B2: HCoV-229E nsp7 (natural protein)
chain: SKLTDLKCTNVVLMGILSNMNIASNSKEWAYCVEMHNKINLCDDPETAQELLLALLAFFLSKHSDFGLGDLVDSYFENDSILQ
B3: PEDV nsp7 (natural protein)
chain: SKLTDIKCSNVVLLGCLSSMNVSANSTEWAYCVDLHNKINLCNDPEKAQEMLLALLAFFLSKNSAFGLDDLLESYFNDNSMLQ
B4: FIPV nsp7 (natural protein)
chain: SKLTEMKCTNVVLLGLLSKMHVESNSKEWNYCVGLHNEINLCDDPDAVLEKLLALIAFFLSKHNTCDLSDLIESYFENTTILQ
notes: also called feline CoV nsp7
B5: TGEV nsp7 (natural protein)
chain: B4 chain with D46E, A47I, D70E

Assays:
[1] = target: HCoV-229E nsp7-8-His6 precursor (HCoV-229E); assay: native MS
[2] = target: PEDV nsp7-8-His6 precursor (PEDV (strain CV777))
[3] = target: SARS-CoV-2 nsp7-8-His6 precursor (SARS-CoV-2); assay: native MS
[4] = target: SARS-CoV nsp7-8-His6 precursor (SARS-CoV (strain Frankfurt-1)); assay: native MS
native MS = target: the molecule itself; assay: native MS

Molecule | stoichiometry N (native MS) | also measured
HCoV-229E nsp7-8-His6 precursor (domain or fragment) | – | stoichiometry N [1]: 2
PEDV nsp7-8-His6 precursor (domain or fragment) | – | stoichiometry N [2]: 2
SARS-CoV-2 nsp7-8-His6 precursor (domain or fragment) | – | stoichiometry N [3]: 2
SARS-CoV nsp7-8-His6 precursor (domain or fragment) | – | stoichiometry N [4]: 2
B1 | 2 | –
B2 | 2 | –
B3 | 2 | –
B4 | 2 | –
B5 | 2 | –
